B1: haloduracin A1 (peptide)
chain: MTNLLKEWKMPLERTHNNSNPAGDIFQELEDQDILAGVNGAENLYFQGCAWYNISCRLGNKGAYCTLTVECMPSCN
B2: haloduracin A2 (peptide)
chain: MVNSKDLRNPEFRKAQGLQFVDEVNEKELSSLAGSENLYFQGTTWPCATVGVSVALCPTTKCTSQC

System: Bacillus subtilis PY79
Assay: Haloduracin agar spot assay on indicator strain
Type: cell-based
Conditions: 5 μL of cleaved, desalted core peptide in 1:1 methanol:water on LB-agar
Description: To assay for antimicrobial activity, the cleaved and desalted core peptides were resuspended in 50 μL 1:1 methanol:water. Bacillus subtilis PY79 was used as indicator strain and was spread on a LB-agar surface, on which 5 μL of either or both haloduracins or a solvent control was added.

Row | Molecule | antibacterial activity, growth inhibition on agar
1 | B1 | minimal antibacterial activity
2 | B2 | minimal antibacterial activity

Source: patent US20230227508A1, “SPLIT INTEIN-BASED SELECTION FOR PEPTIDE BINDERS” (priority 2020, published 2023)
